According to article PMC9482650, “Quantitative fragmentomics allow affinity mapping of interactomes” (Nature Communications, 2022):

What was measured:
Assay in all cases: holdup assay
Set-up in all cases: key: below the threshold = too weak to quantify, mostly under pKd 3.1 to 4
[1] = target: PARD3_3, Q8TEW0
[2] = target: Inadl_1, Q8NI35
[3] = target: T1, LNX2_2, Q8N448
T1 sequence (Q8N448 334-432, limits assumed, looked up): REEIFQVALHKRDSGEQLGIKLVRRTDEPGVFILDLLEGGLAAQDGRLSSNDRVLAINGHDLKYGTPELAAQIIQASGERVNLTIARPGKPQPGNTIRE

[4] = target: Inadl_5, Q8NI35
[5] = target: MAGI2_2, Q86UL8
[6] = target: MAGI3_2, Q5TCQ9
[7] = target: T2, GRIP1_5, Q9Y3R0
T2 sequence (Q9Y3R0 568-668, limits assumed, looked up): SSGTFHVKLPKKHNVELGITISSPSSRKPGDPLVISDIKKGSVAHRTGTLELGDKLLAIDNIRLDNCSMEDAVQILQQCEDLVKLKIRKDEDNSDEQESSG

[8] = target: T3, MPP7, Q5T2T1
T3 sequence (Q5T2T1 134-230, limits assumed, looked up): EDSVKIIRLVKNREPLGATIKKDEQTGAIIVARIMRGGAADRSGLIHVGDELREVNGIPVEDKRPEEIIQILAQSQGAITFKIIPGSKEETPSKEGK

[9] = target: T4, DLG3_2, Q92796
T4 sequence (Q92796 221-321, limits assumed, looked up): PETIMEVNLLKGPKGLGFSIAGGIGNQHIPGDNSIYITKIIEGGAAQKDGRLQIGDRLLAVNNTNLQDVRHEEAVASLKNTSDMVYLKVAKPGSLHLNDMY

[10] = target: DLG1_1, Q12959
[11] = target: ARHGEF12, Q9NZN5-2
[12] = target: MAGI2_4, Q86UL8
[13] = target: SCRIB_2, Q14160
[14] = target: T5, PTPN13_1, Q12923
T5 sequence (Q12923 1088-1188, limits assumed, looked up): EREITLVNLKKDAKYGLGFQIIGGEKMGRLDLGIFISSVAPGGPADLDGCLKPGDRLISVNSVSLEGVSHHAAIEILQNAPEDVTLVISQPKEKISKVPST

[15] = target: GRID2IP_1, A4D2P6
[16] = target: TJP1_3, Q07157
[17] = target: T6, RAPGEF6, Q8TEU7
T6 sequence (Q8TEU7 525-625, limits assumed, looked up): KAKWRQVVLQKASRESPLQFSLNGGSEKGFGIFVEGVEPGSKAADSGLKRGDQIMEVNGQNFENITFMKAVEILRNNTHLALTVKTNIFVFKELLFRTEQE

[18] = target: T7, GRIP1_2, Q9Y3R0
T7 sequence (Q9Y3R0 145-248, limits assumed, looked up): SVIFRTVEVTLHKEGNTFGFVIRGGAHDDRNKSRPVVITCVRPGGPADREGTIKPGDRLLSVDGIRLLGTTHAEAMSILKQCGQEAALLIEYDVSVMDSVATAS

[19] = target: FRMPD2_3, Q68DX3
[20] = target: MAGI1_1, Q96QZ7
[21] = target: T8, DFNB31_2, Q9P202
T8 sequence (Q9P202 274-371, limits assumed, looked up): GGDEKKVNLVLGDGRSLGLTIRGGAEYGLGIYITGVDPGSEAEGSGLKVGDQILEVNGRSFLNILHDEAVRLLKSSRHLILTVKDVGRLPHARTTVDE

[22] = target: T9, SYNJ2BP, P57105
T9 sequence (P57105 8-110, limits assumed, looked up): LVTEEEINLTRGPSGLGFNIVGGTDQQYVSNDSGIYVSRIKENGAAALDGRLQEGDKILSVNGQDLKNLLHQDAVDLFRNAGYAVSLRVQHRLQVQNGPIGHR

[23] = target: T10, CARD11, Q9BXL7
T10 sequence (Q9BXL7 662-765, limits assumed, looked up): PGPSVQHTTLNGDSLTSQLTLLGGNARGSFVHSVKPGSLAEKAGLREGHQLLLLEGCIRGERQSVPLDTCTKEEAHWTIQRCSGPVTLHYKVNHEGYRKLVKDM

[24] = target: DLG4_2, P78352
[25] = target: T11, TX1BP3, O14907
T11 sequence (O14907 10-122, limits assumed, looked up): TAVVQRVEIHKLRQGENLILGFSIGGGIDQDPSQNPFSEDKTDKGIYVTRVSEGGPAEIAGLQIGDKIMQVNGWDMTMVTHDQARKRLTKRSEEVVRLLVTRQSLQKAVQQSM

[26] = target: CASK, O14936
[27] = plain residues with an end cap or a label only (N-terminal biotin on a linker: ttds)
[28] = plain residues with an end cap or a label only (N-terminal biotin on a linker: ahx)

Chain of CASK, O14936 (O14936 487-570): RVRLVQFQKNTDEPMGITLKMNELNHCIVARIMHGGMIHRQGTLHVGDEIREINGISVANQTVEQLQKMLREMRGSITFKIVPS
Chain of Inadl_1, Q8NI35 (Q8NI35 113-229): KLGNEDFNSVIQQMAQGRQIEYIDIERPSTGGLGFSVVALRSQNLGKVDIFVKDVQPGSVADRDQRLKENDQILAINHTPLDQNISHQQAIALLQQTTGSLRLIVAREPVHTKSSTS
Chain of SCRIB_2, Q14160 (Q14160 857-960): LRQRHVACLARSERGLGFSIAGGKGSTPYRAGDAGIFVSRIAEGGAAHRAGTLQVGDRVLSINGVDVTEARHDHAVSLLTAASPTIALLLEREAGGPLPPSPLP
Chain of ARHGEF12, Q9NZN5-2 (Q9NZN5 other isoform, or with tags, fused parts or gaps): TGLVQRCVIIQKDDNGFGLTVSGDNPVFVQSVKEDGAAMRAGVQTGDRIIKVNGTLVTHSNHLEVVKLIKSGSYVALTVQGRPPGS
Chain of DLG4_2, P78352 (P78352 155-259): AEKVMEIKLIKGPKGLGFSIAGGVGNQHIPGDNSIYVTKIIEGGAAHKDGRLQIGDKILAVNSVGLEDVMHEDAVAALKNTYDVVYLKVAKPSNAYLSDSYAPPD
Chain of FRMPD2_3, Q68DX3 (Q68DX3 1073-1166): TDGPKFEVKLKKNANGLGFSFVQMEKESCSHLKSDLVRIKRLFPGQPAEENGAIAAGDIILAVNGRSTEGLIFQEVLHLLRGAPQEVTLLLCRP
Chain of PARD3_3, Q8TEW0 (Q8TEW0 582-685): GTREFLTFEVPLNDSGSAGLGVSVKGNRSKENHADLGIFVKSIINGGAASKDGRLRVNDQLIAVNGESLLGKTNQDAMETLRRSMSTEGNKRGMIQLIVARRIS
Chain of MAGI2_2, Q86UL8 (Q86UL8 410-522): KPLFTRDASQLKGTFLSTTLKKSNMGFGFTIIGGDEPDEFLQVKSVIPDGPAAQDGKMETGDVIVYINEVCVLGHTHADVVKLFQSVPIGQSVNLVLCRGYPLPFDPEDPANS
Chain of TJP1_3, Q07157 (Q07157 416-512): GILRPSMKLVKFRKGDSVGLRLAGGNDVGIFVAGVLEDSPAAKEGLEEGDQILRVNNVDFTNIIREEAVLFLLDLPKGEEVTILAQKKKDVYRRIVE
Chain of MAGI1_1, Q96QZ7 (Q96QZ7 1-106): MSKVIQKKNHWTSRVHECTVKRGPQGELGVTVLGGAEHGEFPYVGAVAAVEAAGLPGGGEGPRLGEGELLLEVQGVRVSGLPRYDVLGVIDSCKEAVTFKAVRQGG
Chain of Inadl_5, Q8NI35 (Q8NI35 673-780): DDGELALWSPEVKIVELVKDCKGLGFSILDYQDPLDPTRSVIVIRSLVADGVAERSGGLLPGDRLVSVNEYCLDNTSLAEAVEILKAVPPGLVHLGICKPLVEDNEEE
Chain of MAGI2_4, Q86UL8 (Q86UL8 772-865): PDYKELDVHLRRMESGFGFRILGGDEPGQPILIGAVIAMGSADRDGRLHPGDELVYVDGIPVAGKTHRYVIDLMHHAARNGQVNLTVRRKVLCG
Chain of GRID2IP_1, A4D2P6 (A4D2P6 1-87): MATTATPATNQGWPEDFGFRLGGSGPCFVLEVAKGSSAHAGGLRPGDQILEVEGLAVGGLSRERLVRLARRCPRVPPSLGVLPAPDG
Chain of MAGI3_2, Q5TCQ9 (Q5TCQ9 398-503): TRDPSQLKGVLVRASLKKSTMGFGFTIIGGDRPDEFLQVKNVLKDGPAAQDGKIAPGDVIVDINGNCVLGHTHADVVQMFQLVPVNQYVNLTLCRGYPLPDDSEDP

QSARYRDTEL [TJP2, Q9UDY2]
pKd [1, 27]: 3.7 | pKd [2, 27]: below the threshold | pKd [3, 27]: below the threshold | pKd [4, 27]: below the threshold | pKd [5, 27]: below the threshold | pKd [6, 27]: below the threshold | pKd [7, 27]: below the threshold | pKd [8, 27]: below the threshold | pKd [9, 27]: below the threshold | pKd [10, 27]: 3.68 | pKd [11, 27]: 4.27 | pKd [12, 27]: 3.74 | pKd [13, 27]: 3.9 | pKd [14, 27]: below the threshold | pKd [15, 27]: 3.59 | pKd [16, 27]: below the threshold | pKd [17, 27]: 3.55 | pKd [18, 27]: below the threshold | pKd [19, 27]: below the threshold | pKd [20, 27]: 3.55 | pKd [21, 27]: below the threshold | pKd [22, 27]: 5.1 | pKd [23, 27]: below the threshold | pKd [24, 27]: 3.83 | pKd [25, 27]: 4.76 | pKd [26, 27]: below the threshold

TEAKLTETNA [MYO18A, Q92614]
pKd [1, 28]: below the threshold | pKd [2, 28]: below the threshold | pKd [3, 28]: below the threshold | pKd [4, 28]: below the threshold | pKd [5, 28]: below the threshold | pKd [6, 28]: below the threshold | pKd [7, 28]: below the threshold | pKd [8, 28]: below the threshold | pKd [9, 28]: below the threshold | pKd [10, 28]: below the threshold | pKd [11, 28]: below the threshold | pKd [12, 28]: below the threshold | pKd [13, 28]: below the threshold | pKd [14, 28]: below the threshold | pKd [15, 28]: below the threshold | pKd [16, 28]: below the threshold | pKd [17, 28]: below the threshold | pKd [18, 28]: below the threshold | pKd [19, 28]: below the threshold | pKd [20, 28]: below the threshold | pKd [21, 28]: below the threshold | pKd [22, 28]: below the threshold | pKd [23, 28]: below the threshold | pKd [24, 28]: below the threshold | pKd [25, 28]: below the threshold | pKd [26, 28]: below the threshold
